Experimental data taken from the supplement of paper PMC9732359.
± gives the uncertainty stated by the source.

Test: protein stability index of a GFP-peptide fusion (yeast GPS) (PSI 1-4); higher = more stable; sorted into four equal gates, so the index is relative within each strain
Settings: pdr5∆
Method in brief: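 Peptides tiling yeast proteins in 17-residue segments were fused downstream of GFP, with Cherry expressed from the same plasmid. As a pooled library in yeast, mid-log cultures grown in leucine-free medium were sorted into four equal gates by GFP/Cherry fluorescence ratio. Gate plasmids were PCR-amplified and Illumina-sequenced, and barcodes linked reads to strains. Each peptide received a protein stability index equal to the sum of each gate's read frequency times its gate number.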

Sequence | protein stability index
ATRHVLMRQGVLGIKVK [RPS3] | 2.27 ± 0.073
ATTGGGLFGNKPNNTAN [YGL172W/NUP49] | 3.29 ± 0.21

Same assay, conditions: san1∆

Sequence | protein stability index
AGKWSSKYLIKQIDIPN [ECM29] | 2.15 ± 0.087
AGTEANAVSFDTTFSDF [SRB4] | 3.036 ± 0.029
AGTQSSKFSKQQAKGAF [RPL24A] | 3.27 ± 0.035
AGTTDNSFIKANLPWLG [RPN2] | 1.39 ± 0.086
AGYTTHLMKRIQKGPVR [RPS17A] | 1.86 ± 0.16
AHFLSLSFTPTTVIGIR [RPN2] | 1.28 ± 0.083
AHVFVGTCNGDITTSIM [RPN1] | 2.63 ± 0.047
AIACYSGYNQEDSMIMN [RPB2] | 2.67 ± 0.098
AIANTLLYLRLKNIYVS [PRP8] | 1.38 ± 0.084
AICRYANVIKALAFCEI [RRP4] | 1.66 ± 0.18
AIDYEPEYEKAMQYVCG [SMC1] | 2.8 ± 0.13
AIIGLKSGTSHDAIFSI [SNF12] | 2.5 ± 0.069
AINIMNRSNDALIKFME [FAS2] | 3.26 ± 0.093
AIPSRMTVAHLIECLLS [RPB2] | 1.39 ± 0.25
AIRRDARYNWICDPVHK [RPL15A] | 3.25 ± 0.11
AIRRDARYNWICNPVHK [RPL15B] | 3.37 ± 0.13
AISGKKTTYYYYNEEGI [RPC82] | 2.8 ± 0.056
AISTDKINPFGFEQVKI [RRI2] | 2.72 ± 0.061
AITISNSIDINYKGLPK [SMC1] | 2.54 ± 0.073
AKGCEVVVSGKLRAARA [RPS3] | 3.42 ± 0.14
AKGLVAYHQKYVDEQSK [RPS16A] | 2.52 ± 0.089
AKHAVSEGTRAVTKYSS [HTB1] | 3.41 ± 0.075
AKIYPGRGTLFVRGDSK [RPL24A] | 1.97 ± 0.15
AKNEDDPAHSLNYTVIN [AAR2] | 2.68 ± 0.11

Sequence | protein stability index
AKQALDLYHFALNYENE [SNF2] | 2.69 ± 0.095
AKSISTSAKEPSENDVF [RPO31] | 2.56 ± 0.083
AKSMAFLKEVLSDLSSP [YML103C/NUP188] | 2.79 ± 0.11
AKSTVETFISSMTATAD [RIP1] | 2.93 ± 0.061
AKVNRPAKIVNFEKPKN [RPN5] | 2.89 ± 0.056
AKWAPTLRTISFKGSPN [SNF2] | 2.77 ± 0.15
ALASIQTFNFDSFENYF [RPN12] | 2.51 ± 0.096
ALDTVTNVLNFIKLQKI [FAS1] | 2.14 ± 0.13
ALEEAKLSDNISICMIL [YDL116W/NUP84] | 3.04 ± 0.06
ALEFVSLLLSSVKESTG [SRB4] | 1.4 ± 0.11
ALEYIGAKVKTMRRQKL [RET1] | 2.22 ± 0.089
ALIDAGISMFDYISGIS [SKI6] | 2.3 ± 0.099
ALIDTEFANFELKDICS [YML103C/NUP188] | 2.65 ± 0.063
ALIENWAADSVSSRVRG [FAS1] | 2.84 ± 0.082
ALPNIENDIIKLSDSKT [BRR2] | 2.82 ± 0.044
ALQNLSQLPITPMTRIS [YGL172W/NUP49] | 1.66 ± 0.21
ALRGMFKDRFKDEPVQN [FAS2] | 3.35 ± 0.069
ALSLHREILCYSKDAKE [FAS2] | 1.85 ± 0.044
ALSQSSLLKTKLKQQSS [RRI1] | 2.22 ± 0.048
ALTKFEASQVTEKQRKK [RPL35A] | 3.1 ± 0.064
ALTRGEALLVVLVSSVT [RPS12] | 3.52 ± 0.24
AMFFGNYGSSLQWHAMI [AAR2] | 1.44 ± 0.12
AMICEAKGLIENIFEGE [YJR042W/NUP85] | 2.5 ± 0.1
AMLINLILRDFLNNGEV [RPN3] | 2.59 ± 0.066

Sequence | protein stability index
AMSLYHSPFPFNRTKGK [PRP8] | 1.65 ± 0.07
ANATAAESDVAKQLAAL [RPL16A] | 3.19 ± 0.046
ANGIINVKEITEKLKIS [SMC3] | 2.75 ± 0.14
ANLEDIIFEIEKPLVVP [RRP6] | 2.62 ± 0.08
ANLPANSSTSPAPSIPS [YLR335W/NUP2] | 2.95 ± 0.03
ANLPWLGKAQNWAKFTA [RPN2] | 3.11 ± 0.087
ANNIVNIVSDAGANDTS [GRR1] | 3.64 ± 0.1
ANRDDVKGRENELLLPS [RPC82] | 3.6 ± 0.09
ANRSRFNNEAPPQTRKF [SMB1] | 2.87 ± 0.069
APGASVPATAAPGTEAG [SWI1] | 2.92 ± 0.079
APGTEAGIVPVSANTPK [SWI1] | 3.08 ± 0.053
APIPKQLLQRIPNIPPN [GAL11] | 2.6 ± 0.07
APKWYPSEDVAAPKKTR [RPL6B] | 1.87 ± 0.092
APLAKVVFRDPYKYRLR [RPL2A] | 3.07 ± 0.06
APPLENENSNCLLSIPK [YML103C/NUP188] | 1.65 ± 0.16
APSVPEFIYLTKVLQFA [SNF2] | 1.78 ± 0.12
AQAQAQAQAQVYAQQST [PGD1] | 2.97 ± 0.045
AQFAGRASIEYYVGQVM [DIS3] | 2.64 ± 0.17
AQFLRSVVHPGEMVGVL [RPO21] | 2.3 ± 0.1
AQGDPNLEPLIAKLVAV [NUT1] | 3.08 ± 0.19
AQGLLHLGKGTMTMDVF [RPN1] | 2.15 ± 0.081
AQKNTQSYGGRPYGVGL [PRE5] | 3.23 ± 0.076
AQKRVVSYMMPSLYRLL [SRB8] | 1.1 ± 0.12
AQLDGRIGVLQARMMQQ [NSL1] | 2.46 ± 0.056

Sequence | protein stability index
AQPSVQSSFAGTWSAKE [FAS2] | 3.35 ± 0.076
AQYEVLANYLTSALSEL [QCR2] | 1.99 ± 0.067
ARERKTATYNDNMSEEQ [SNF2] | 3.46 ± 0.11
ARIFEFPKTTVAALRFT [RPL18A] | 2 ± 0.19
ARIKDAFITQLESSITD [YJL039C/NUP192] | 1.14 ± 0.11
ARSGLRIGRIEDVTPVP [RPS14A] | 2.92 ± 0.097
ARTATVSKKWAAAAVCE [RPL14A] | 3.58 ± 0.11
ARVILYLKNVLFAFNGV [SIN4] | 1.42 ± 0.077
ARYNWICNPVHKHREAR [RPL15B] | 2.36 ± 0.11
ASDGGLYVPHSENRFPG [RPL5] | 2.93 ± 0.095
ASSLRFGNSLSNTVNAN [YDL088C/ASM4] | 2.65 ± 0.059
ASSSPSSTDFSTCIVSL [ECM29] | 2.01 ± 0.1
ASTINGASIIQVIFEIF [YML103C/NUP188] | 1.95 ± 0.087
ASYSKYLIDHIKVDGAV [RPL22B] | 2.62 ± 0.053
ASYVNIPVIALTDLDSP [RPS0A] | 1.61 ± 0.17
ATANATANATANVNASA [DSN1] | 3.17 ± 0.032
ATDEESVRLQRFYQLGV [CSN12] | 2.92 ± 0.11
ATESIKNRRRIHGELKT [SMC1] | 2.28 ± 0.26
ATLKEIKSIIEQRKQKL [SMC3] | 3.16 ± 0.046
ATNRPDTLDPALLRPGR [RPT4] | 2.89 ± 0.1
ATPPLKRFKDMEYLSGG [SMC1] | 2.99 ± 0.047
ATRHVLMRQGVLGIKVK [RPS3] | 1.93 ± 0.095
ATTGGGLFGNKPNNTAN [YGL172W/NUP49] | 3.66 ± 0.083

Same assay, conditions: ubr1∆

Sequence | protein stability index
AGKWSSKYLIKQIDIPN [ECM29] | 2.05 ± 0.049
AGTEANAVSFDTTFSDF [SRB4] | 3.02 ± 0.038
